Data published in paper PMC8556268.

T1: Biotinylated Tir-10_v2 (Biotin-Ahx-EHI-pY-DEVAAD)
T1 chain: EHIYDEVAAD

B1: free SH2 domain derived from the Nck adapter protein, P16333 282-376 (domain or fragment)
chain: WYYGKVTRHQAEMALNERGHEGDFLIRDSESSPNDFSVSLKAQGKNKHFKVQLKETVYCIGQRKFSTMEELVEHYKKAPIFTSEQGEKLYLVKHL
modifications: not checked
B2: tcTRP24_(8)SS-SH2_(2) (trimeric tcTRP24 particle with two Nck SH2 domains in each subunit, six in all), P16333 282-376; P16333 282-376 (protein)
chain: SELAARCLIILFQQLVELARLAIESGDEELLRRVSEWLEEVIKDMRRVVEQALREGNSELAARILIILFQQLVELARLAIESGDEELLRRVSEWLEEVIKDMRRVVEQALREGNWYYGKVTRHQAEMALNERGHEGDFLIRDSESSPNDFSVSLKAQGKNKHFKVQLKETVYCIGQRKFSTMEELVEHYKKAPIFTSEQGEKLYLVKHLSELAARILIILFQQLVELARLAIESGDEELLRRVSEWLEEVIKDMRRVVEQALREGNSELAARILIILFQQLVELARLAIESGDEELLRRVSEWLEEVIKDMRRVVEQALREGNSELAARILIILFQQLVELARLAIESGDEELLRRVSEWLEEVIKDMRRVVEQALREGNSELAARILIILFQQLVELARLAIESGDEELLRRVSEWLEEVIKDMRRVVEQALREGNWYYGKVTRHQAEMALNERGHEGDFLIRDSESSPNDFSVSLKAQGKNKHFKVQLKETVYCIGQRKFSTMEELVEHYKKAPIFTSEQGEKLYLVKHLSELAARILIILFQQLVELARLAIESGDEELLRRVSEWLEEVIKDMRRVVEQALREGNSELACRILIILFQQLVELARLAIESGDEELLRRVSEWLEEVIKDMRRVVEQALREGN
modifications: not checked

Target: T1, Biotinylated Tir-10_v2 …
Assay: SPR; Biacore T100, 25 °C, Series S SA chip, about 15 RUs of biotinylated peptide captured; 10 mM HEPES pH 7.4, 150 mM NaCl, 3 mM EDTA, 0.05% P20, 0.1 mg/mL BSA; analytes 60 nM free SH2, 10 nM tcTRP24_(8)SS-SH2_(2), 10 nM tcTRP24_(8)SS; 50 μL/minute

Binder	maximum binding response [RUs]
B1	125
B2	123
